Test results: paper PMC3866529

Tests used:
[1] = target: Cys22 (UniProt position 23, FIKPTCPYCRR); conditions: cited from earlier work
[2] = tested on: Cys31; test: chemical modification; conditions: Pre-incubation temperature not stated; the HED activity assay was run at 25°C; not stated (100 mM buffer); 100 mM sodium citrate or phosphate buffers; DTT-reduced WT protein, no ligand
[3] = target: Cys22 (UniProt position 23, FIKPTCPFARK); conditions: cited from earlier work
[4] = tested on: Cys; conditions: cited from earlier work
[5] = tested on: Cys27; test: chemical modification
[6] = tested on: Cys23; test: chemical modification; conditions: Pre-incubation temperature not stated; the HED activity assay was run at 25°C; not stated (100 mM buffer); 100 mM sodium citrate or phosphate buffers; DTT-reduced WT protein, no ligand
[7] = target: Cys22 (UniProt position 23, FIKPTCPFCRK); conditions: cited from earlier work
[8] = target: Cys22 (UniProt position 23, FIKPTCPFSRK); conditions: cited from earlier work
[9] = tested on: Cys37; test: chemical modification; conditions: Pre-incubation temperature not stated; the HED activity assay was run at 25°C; not stated (100 mM buffer); 100 mM sodium citrate or phosphate buffers; DTT-reduced WT protein, no ligand

For “Glutaredoxin 1 (HsGrx1, thioltransferase) (Homo sapiens)”, the pKa [1] is listed as 3.6.

Substance “Glutaredoxin C1 (PtGrxC1) (Populus sp. (poplar; 'Pt' prefix, species not spelled out in the article))” has a pKa [2] of 5.3 ± 0.1.

For “Glutaredoxin (pig liver thioltransferase) C25A (Sus scrofa; C25A)”, the pKa [3] is given as 5.9.

For “Glutaredoxin 1 (CrGrx1) (Chlamydomonas reinhardtii)”, the pKa [4] is listed as 3.9 ± 0.1.

For “Glutaredoxin 2 (ScGrx2) (Saccharomyces cerevisiae)”, the pKa [4] is given as 3.1 to 3.5 ± 0.2.

For Glutaredoxin 2 (HsGrx2) (Homo sapiens), the pKa [4] is listed as 4.6.

In the case of “Glutaredoxin S12 (PtGrxS12) (Populus sp. (poplar))”, the pKa ([5]; cited from earlier work) is listed as 3.9.

For “Glutaredoxin C4 (PtGrxC4) (Populus sp. (poplar; 'Pt' prefix, species not spelled out in the article))”, the pKa ([5]; Pre-incubation temperature not stated, the HED activity assay was run at 25°C, not stated (100 mM buffer), 100 mM sodium citrate or phosphate buffers, DTT-reduced WT protein, no ligand) was 4.6 ± 0.1.

“Glutaredoxin C2 (PtGrxC2) (Populus sp. (poplar; 'Pt' prefix, species not spelled out in the article))” showed a pKa [6] of 5.0 ± 0.1.

In the case of “Glutaredoxin (pig liver thioltransferase) (Sus scrofa)”, the pKa [7] is listed as 3.8.

For “Glutaredoxin (pig liver thioltransferase) C25S (Sus scrofa; C25S)”, the pKa [8] is listed as 4.9.

For “Glutaredoxin 1 (ScGrx1) (Saccharomyces cerevisiae)”, the pKa [4] is given as 3.2 to 4.0 ± 0.2.

In the case of “Glutaredoxin C3 (PtGrxC3) (Populus sp. (poplar; 'Pt' prefix, species not spelled out in the article))”, the pKa [9] is reported as 4.6 ± 0.1.

For “Glutaredoxin 2 (CrGrx2) (Chlamydomonas reinhardtii)”, the pKa [4] is given as 4.8 ± 0.1.
